Measured values published in patent US20160032013A1 (Genentech, published 2016).
One block for each binder: values may come before it.

How the values were obtained:
[1] = target: T1, Recombinant human RON Sema/PSI (residues E25-P568) with C-terminal His-tag (human, UniProt Q04912 25-568); test: SPR using immobilized RON Sema/PSI at 25 C
T1 construct: Made in Trichoplusia ni insect cells

[2] = target: T2, Human RON-hIgG1 Fc (RON Sema/PSI/IPT1 fused to human IgG1 Fc) (human); test: SPR capturing RON-Fc at 25 C
T2 construct: also called RON-Fc; hRON-Fc
T2 sequence (chain, as listed by the source limits assumed): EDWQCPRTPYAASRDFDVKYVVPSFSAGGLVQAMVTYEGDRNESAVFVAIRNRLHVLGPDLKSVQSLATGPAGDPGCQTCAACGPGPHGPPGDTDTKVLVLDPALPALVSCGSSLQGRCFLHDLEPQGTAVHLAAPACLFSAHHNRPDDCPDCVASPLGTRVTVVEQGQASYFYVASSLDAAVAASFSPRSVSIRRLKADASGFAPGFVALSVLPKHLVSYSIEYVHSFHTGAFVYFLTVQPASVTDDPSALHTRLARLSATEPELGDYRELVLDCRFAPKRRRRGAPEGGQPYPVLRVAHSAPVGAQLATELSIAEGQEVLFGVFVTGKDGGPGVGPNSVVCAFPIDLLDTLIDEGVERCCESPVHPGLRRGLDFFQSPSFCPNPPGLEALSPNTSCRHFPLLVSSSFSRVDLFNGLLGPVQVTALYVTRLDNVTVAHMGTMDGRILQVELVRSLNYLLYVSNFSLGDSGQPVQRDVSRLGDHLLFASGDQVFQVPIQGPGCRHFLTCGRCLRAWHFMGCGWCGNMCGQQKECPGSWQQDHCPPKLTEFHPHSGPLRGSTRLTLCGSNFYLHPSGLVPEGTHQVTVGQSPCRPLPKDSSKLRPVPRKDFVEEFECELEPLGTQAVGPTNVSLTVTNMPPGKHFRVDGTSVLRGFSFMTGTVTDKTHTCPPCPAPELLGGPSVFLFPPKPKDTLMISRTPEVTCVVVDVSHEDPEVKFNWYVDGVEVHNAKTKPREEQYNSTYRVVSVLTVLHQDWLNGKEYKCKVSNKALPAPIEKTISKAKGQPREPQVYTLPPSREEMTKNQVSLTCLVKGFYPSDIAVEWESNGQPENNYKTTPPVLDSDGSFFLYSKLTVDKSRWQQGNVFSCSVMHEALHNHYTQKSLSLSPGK
Protocol: To determine MSP protein binding kinetics to hRON-Fc or mRON-Fc fusion proteins, between 50 and 100 response units (RU) were captured on each of three immobilized anti-human Fc surfaces. Various concentrations (50-0.78 nM, 2-fold dilution series) of MSP, MSP β, MSP α or scMSP were injected in HBS-P buffer (10 mM HEPES, pH 7.5, 150 mM NaCl, 0.005% P20) at 25° C. with a flow rate of 30 μL/min and dissociation monitored for 4 min. Between measurements, the biosensor surfaces were regenerated with a 2 min pulse of 10 mM glycine-HCl pH 1.5.

[3] = target: T2, Human RON-hIgG1 Fc (RON Sema/PSI/IPT1 …); test: BLI using RON-Fc at 30 C
Protocol: Real-time kinetic measurements of MSP binding to RON were conducted using an Octet RED384 (ForteBio, Inc). Samples or buffer were dispensed into 96-well microtiter plates (Greiner Bio-One North America, Inc.) at a volume of 200 μl per well. Anti-human IgG Fc Biosensors were used for the experiments. Each experiment consisted of three steps: incubation with ForteBio Kinetic buffer diluted 1:10 in PBS assay buffer to establish an equilibrium for 120 s (baseline), incubation with 10 μg/ml RON-Fc in assay buffer to coat the biosensor with binding target for 900 s (load), incubation with MSP, MSP β or scMSP in assay buffer containing various concentrations (75-4.7 nM, 2-fold dilution series) for 400 s (association), and incubation with assay buffer to measure the off-rate of MSP for 400 s (dissociation). Operating temperature was maintained at 30° C. Data were generated automatically by the Octet Data Acquisition 7.0 software. Each data set was fitted globally to a simple one-to-one binding model using ForteBio Analysis Software 7.0 to determine the kinetic parameters kₐ and kd. The equilibrium dissociation constants (KD) were then calculated as a ratio (koff/kₒₙ) of these rate constants.

[4] = target: T3, Mouse RON-hIgG1 Fc (murine RON Sema/PSI/IPT1, natural leader + R33-V684, fused to human IgG1 Fc) (mouse); test: SPR (Biacore), anti-Fc chip; legend names murine RON-Fc; the sheet's scheme ('RON or MSP' over 'MSP-Fc or RON-Fc') and have the MSPβ-Fc fusion captured and soluble RON-His injected
T3 construct: also called mRON-hFc; murine RON-Fc
Protocol: Binding kinetics of RON to MSP β-Fc fusion proteins and MSP proteins to RON-Fc fusions were determined using a Biacore 3000 optical biosensor equipped with a research-grade CM5 sensor chip (GE Healthcare). Amine coupling reagents, N-ethyl-N′-dimethylamino-propylcarbodiimide (EDC), N-hydroxy-succinimide (NHS) and sodium ethanolamine HCl, pH 8.5, were obtained from GE Healthcare. Standard coupling protocols were used to tether a rabbit anti-human IgG1 or rabbit anti-murine IgG2a (Jackson ImmunoResearch Laboratories) onto the biosensor surface. A biosensor chip that was subjected to the amine coupling procedure with no protein coupled was used to correct for non-specific binding. […] Various concentrations (500-3.9 nM, 2-fold dilution series) of RON-His, were injected in HBS-P buffer (10 mM HEPES, pH 7.5, 150 mM NaCl, 0.005% P20) at 25° C. with a flow rate of 30 μL/min and dissociation monitored for 240 sec. Between measurements, the biosensor surfaces were regenerated with a 120 s pulse of 10 mM glycine-HCl pH 1.5 followed by a 120 s wash with running buffer.

[5] = target: T4, Mouse RON on cells (3T3-mRON cells; mouse colon and skin) (mouse, UniProt Q62190 24-1378); test: cell-based or functional assay
T4 sequence: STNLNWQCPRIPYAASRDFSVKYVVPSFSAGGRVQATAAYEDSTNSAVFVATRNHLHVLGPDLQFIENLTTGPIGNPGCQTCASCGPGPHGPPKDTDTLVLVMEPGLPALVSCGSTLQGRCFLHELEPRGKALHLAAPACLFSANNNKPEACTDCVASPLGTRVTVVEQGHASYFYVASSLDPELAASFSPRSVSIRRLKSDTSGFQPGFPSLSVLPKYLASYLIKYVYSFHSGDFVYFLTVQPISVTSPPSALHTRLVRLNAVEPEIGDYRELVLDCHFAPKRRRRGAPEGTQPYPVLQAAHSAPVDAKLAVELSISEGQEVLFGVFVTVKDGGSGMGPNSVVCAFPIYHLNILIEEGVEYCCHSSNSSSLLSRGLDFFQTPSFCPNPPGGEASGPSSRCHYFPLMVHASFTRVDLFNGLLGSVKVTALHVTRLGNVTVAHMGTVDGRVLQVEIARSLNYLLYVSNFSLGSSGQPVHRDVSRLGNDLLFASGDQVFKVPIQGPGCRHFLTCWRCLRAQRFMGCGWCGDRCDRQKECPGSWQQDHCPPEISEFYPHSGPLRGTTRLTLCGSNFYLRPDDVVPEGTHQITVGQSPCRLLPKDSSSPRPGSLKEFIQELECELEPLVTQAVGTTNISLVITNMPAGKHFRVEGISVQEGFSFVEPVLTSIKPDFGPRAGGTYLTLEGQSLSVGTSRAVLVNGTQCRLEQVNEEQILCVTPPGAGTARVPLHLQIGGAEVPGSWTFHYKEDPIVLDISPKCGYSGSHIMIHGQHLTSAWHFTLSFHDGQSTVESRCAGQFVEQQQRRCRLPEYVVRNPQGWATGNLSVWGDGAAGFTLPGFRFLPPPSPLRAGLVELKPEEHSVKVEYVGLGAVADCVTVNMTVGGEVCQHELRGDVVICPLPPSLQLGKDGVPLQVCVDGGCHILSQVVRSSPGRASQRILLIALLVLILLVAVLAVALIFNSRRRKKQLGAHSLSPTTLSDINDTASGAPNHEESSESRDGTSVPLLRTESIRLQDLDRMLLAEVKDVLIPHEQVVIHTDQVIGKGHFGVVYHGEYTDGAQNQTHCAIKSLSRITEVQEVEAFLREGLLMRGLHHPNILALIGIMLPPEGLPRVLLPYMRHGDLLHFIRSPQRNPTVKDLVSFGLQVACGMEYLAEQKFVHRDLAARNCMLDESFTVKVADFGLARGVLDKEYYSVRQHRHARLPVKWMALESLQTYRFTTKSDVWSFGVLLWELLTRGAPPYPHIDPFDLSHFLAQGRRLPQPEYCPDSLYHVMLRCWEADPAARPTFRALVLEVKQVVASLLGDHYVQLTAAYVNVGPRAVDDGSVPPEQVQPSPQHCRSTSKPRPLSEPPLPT

[6] = target: T4, Mouse RON on cells (3T3-mRON cells; …); test: flow cytometry on 3T3-mRON cells

Kd [4]: 10.9 nM
B3: h.L16.m DANA (Fc fusion)
MSP β-linker-Fc fusion chain: VVGGHPGNSPWTVSLRNRQGQHFCGGSLVKEQWILTARQCFSSCHMPLTGYEVWLGTLFQNPQHGEPSLQRVPVAKMVCGPSGSQLVLLKLERSVTLNQRVALISLPPEWYVVPPGTKCEIAGWGETKGTGNDTVLNVALLNVISNQECNIKHRGRVRESEMCTEGLLAPVGACEGDYGGPLACFTHNSWVLEGIIIPNRVCARSRWPAVFTRVSVFVDWIHKVMRLGQVTDKKIEPRGPTIKPCPPCKCPAPNLLGGPSVFIFPPKIKDVLMISLSPIVTCVVVAVSEDDPDVQISWFVNNVEVHTAQTQTHREDYASTLRVVSALPIQHQDWMSGKEFKCKVNNKDLPAPIERTISKPKGSVRAPQVYVLPPPEEEMTKKQVTLTCMVTDFMPEDIYVEWTNNGKTELNYKNTEPVLDSDGSYFMYSKLRVEKKNWVERNSYSCSVVHEGLHNHHTTKSFSRTPGK
notes: As h16m, with the D265A and N297A (DANA) mutations in the Fc; also called h16m (DANA); Human MSP β-L16-mIgG2a Fc (DANA)

Kd [4]: 8.4 nM
EC50 (read off the curve) [6]: ~0.05 µg/mL
fold increase in Akt phosphorylation, MSD, colon of injected mice [5]: ~2.5 fold
B6: Mouse MSP β-L16-mIgG2a Fc (Fc fusion)
chain: VVGGHPGNSPWTVSLRNRQGQHFCGGSLVKEQWVLTARQCIWSCHEPLTGYEVWLGTINQNPQPGEANLQRVPVAKAVCGPAGSQLVLLKLERPVILNHHVALIALPPEQYVVPPGTKCEIAGWGESIGTSNNTVLHVASMNVISNQECNTKYRGHIQESEICTQGLVVPVGACEGDYGGPLACYTHDAWVLQGLIIPNRVCARPRWPAIFTRVSVFVDWINKVMQLEQVTDKKIEPRGPTIKPCPPCKCPAPNLLGGPSVFIFPPKIKDVLMISLSPIVTCVVVDVSEDDPDVQISWFVNNVEVHTAQTQTHREDYNSTLRVVSALPIQHQDWMSGKEFKCKVNNKDLPAPIERTISKPKGSVRAPQVYVLPPPEEEMTKKQVTLTCMVTDFMPEDIYVEWTNNGKTELNYKNTEPVLDSDGSYFMYSKLRVEKKNWVERNSYSCSVVHEGLHNHHTTKSFSRTPGK
notes: also called m16m

The next lines start with the binder.

B1: Human MSP β R689C (HGF leader + V484-G711 + C588S + C672A + R689C + His tag) (ligand)
chain: VVGGHPGNSPWTVSLRNRQGQHFCGGSLVKEQWILTARQCFSSCHMPLTGYEVWLGTLFQNPQHGEPSLQRVPVAKMVCGPSGSQLVLLKLERSVTLNQRVALISLPPEWYVVPPGTKCEIAGWGETKGTGNDTVLNVALLNVISNQECNIKHRGRVRESEMCTEGLLAPVGACEGDYGGPLACFTHNAWVLEGIIIPNRVCARSCWPAVFTRVSVFVDWIHKVMRLGHHHHHH
notes: This is an inference
Kd [1]: 9.1 nM
koff [1]: 0.0142 s⁻¹
kon [1]: 1.3e+06 M⁻¹ s⁻¹
Kd [2]: 9 nM
koff [2]: 0.0479 s⁻¹
kon [2]: 5.75e+06 M⁻¹ s⁻¹
Kd [3]: 9.1 nM
koff [3]: 0.0093 s⁻¹
kon [3]: 1.75e+06 M⁻¹ s⁻¹

B2: Mouse MSP β-L4-mIgG2a Fc (Fc fusion)
chain: VVGGHPGNSPWTVSLRNRQGQHFCGGSLVKEQWVLTARQCIWSCHEPLTGYEVWLGTINQNPQPGEANLQRVPVAKAVCGPAGSQLVLLKLERPVILNHHVALIALPPEQYVVPPGTKCEIAGWGESIGTSNNTVLHVASMNVISNQECNTKYRGHIQESEICTQGLVVPVGACEGDYGGPLACYTHDAWVLQGLIIPNRVCARPRWPAIFTRVSVFVDWINKVMQLETIKPCPPCKCPAPNLLGGPSVFIFPPKIKDVLMISLSPIVTCVVVDVSEDDPDVQISWFVNNVEVHTAQTQTHREDYNSTLRVVSALPIQHQDWMSGKEFKCKVNNKDLPAPIERTISKPKGSVRAPQVYVLPPPEEEMTKKQVTLTCMVTDFMPEDIYVEWTNNGKTELNYKNTEPVLDSDGSYFMYSKLRVEKKNWVERNSYSCSVVHEGLHNHHTTKSFSRTPGK
notes: also called m4m
Kd [4]: 8.3 nM
fold increase in Akt phosphorylation, MSD, colon of injected mice [5]: ~2.6 fold

B4: Mouse MSP β-L12-mIgG2a Fc (Fc fusion)
chain: VVGGHPGNSPWTVSLRNRQGQHFCGGSLVKEQWVLTARQCIWSCHEPLTGYEVWLGTINQNPQPGEANLQRVPVAKAVCGPAGSQLVLLKLERPVILNHHVALIALPPEQYVVPPGTKCEIAGWGESIGTSNNTVLHVASMNVISNQECNTKYRGHIQESEICTQGLVVPVGACEGDYGGPLACYTHDAWVLQGLIIPNRVCARPRWPAIFTRVSVFVDWINKVMQLEKKIEPRGPTIKPCPPCKCPAPNLLGGPSVFIFPPKIKDVLMISLSPIVTCVVVDVSEDDPDVQISWFVNNVEVHTAQTQTHREDYNSTLRVVSALPIQHQDWMSGKEFKCKVNNKDLPAPIERTISKPKGSVRAPQVYVLPPPEEEMTKKQVTLTCMVTDFMPEDIYVEWTNNGKTELNYKNTEPVLDSDGSYFMYSKLRVEKKNWVERNSYSCSVVHEGLHNHHTTKSFSRTPGK
notes: also called m12m; mMSPβ-L12-mIgG2a
Kd [4]: 10.4 nM
EC50 (read off the curve) [6]: ~0.05 µg/mL
fold increase in Akt phosphorylation, MSD, colon of injected mice [5]: ~2.3 fold

B5: Mouse MSP β-L8-mIgG2a Fc (Fc fusion)
chain: VVGGHPGNSPWTVSLRNRQGQHFCGGSLVKEQWVLTARQCIWSCHEPLTGYEVWLGTINQNPQPGEANLQRVPVAKAVCGPAGSQLVLLKLERPVILNHHVALIALPPEQYVVPPGTKCEIAGWGESIGTSNNTVLHVASMNVISNQECNTKYRGHIQESEICTQGLVVPVGACEGDYGGPLACYTHDAWVLQGLIIPNRVCARPRWPAIFTRVSVFVDWINKVMQLEPRGPTIKPCPPCKCPAPNLLGGPSVFIFPPKIKDVLMISLSPIVTCVVVDVSEDDPDVQISWFVNNVEVHTAQTQTHREDYNSTLRVVSALPIQHQDWMSGKEFKCKVNNKDLPAPIERTISKPKGSVRAPQVYVLPPPEEEMTKKQVTLTCMVTDFMPEDIYVEWTNNGKTELNYKNTEPVLDSDGSYFMYSKLRVEKKNWVERNSYSCSVVHEGLHNHHTTKSFSRTPGK
notes: also called m8m
Kd [4]: 8.5 nM
EC50 (read off the curve) [6]: ~0.05 µg/mL
fold increase in Akt phosphorylation, MSD, colon of injected mice [5]: ~2 fold
